This experiment deals with rat PK1 receptor, endogenous in rat ileum (rat, UniProt Q8R416). In words: cell-based or functional assay.

B1: PK1 ligand preparation (recombinant human Prokineticin 1 after enterokinase removal of the N-terminal FLAG tag) (ligand)
chain: AVITGACERDVQCGAGTCCAISLWLRGLRMCTPLGREGEECHPGSHKVPFFRKRKHHTCPCLPNLLCSRFPDGRYRCSMDLKNINF
Take B1: the “EC50 of the early contractile response of isolated rat ileum” value was 87.8 nM and the “EC50 of the late contractile response of isolated rat ileum” value was 72.4 nM.

The values are drawn from US20110136811A1, “PROKINETICIN 1 RECEPTOR” (published 2011).
